Values joined by “and” are separate entries in the source; they are usually repeats but may differ in a detail not shown here. Equal values may be shown once.
B1: BCY15231 (E3) (peptide)
chain: ACEDNDWVYCSTCA
modifications: not checked
B2: BCY15354 (E1) (peptide)
chain: ACEYVGPMCYRLYCA
modifications: not checked
B3: BCY16207 (E9) (peptide)
chain: ACMNPFFYDCETVCA
modifications: not checked

Molecular target: S1 (Novus Biologicals NBP2-90985) (SARS-CoV-2), P0DTC2
Experiment: AlphaScreen or HTRF

Binder | IC50
B1 | 310 nM and 400 nM
B2 | 360 nM and 1600 nM and 550 nM
B3 | 1100 nM
